# Results taken from IntAct's records for PubMed 10545448.
# B1: Meiosis-inducing protein 1 (Saccharomyces cerevisiae), P21190 (parent)
# chain: MQADMHGKLHAALEDGFFLFPFEQQQQPNIYYDTTTDQEDRPCFSFGSTISPRSWHFEKSDKIASSQLQNLVHTQPIHLINPQILFNEEFLNLENIDSQPISKETKTTKDCTMATGPERGKKSSESTRSSSLSSLFSNDESASTFHSSFNNHDNFQKSNRNGDDIDISDTIKYETNTNAQKDIKIFQENFEFNEFPYTQDFYPYTTNYTYSKPTNIHESINSKNTDSYSQYQDQFPPHTDNIHSFNNRHYSNHKSTNCNYYNNTSNNNNASDNVYEADPFIDEPQVPSYYYPLEIAFDVEKSPPPSLQKLNSKELEFLKKLNSKLSRYAAAYSFSSSNDQDYYDKVRFQEISYKFSKTYS
# partner: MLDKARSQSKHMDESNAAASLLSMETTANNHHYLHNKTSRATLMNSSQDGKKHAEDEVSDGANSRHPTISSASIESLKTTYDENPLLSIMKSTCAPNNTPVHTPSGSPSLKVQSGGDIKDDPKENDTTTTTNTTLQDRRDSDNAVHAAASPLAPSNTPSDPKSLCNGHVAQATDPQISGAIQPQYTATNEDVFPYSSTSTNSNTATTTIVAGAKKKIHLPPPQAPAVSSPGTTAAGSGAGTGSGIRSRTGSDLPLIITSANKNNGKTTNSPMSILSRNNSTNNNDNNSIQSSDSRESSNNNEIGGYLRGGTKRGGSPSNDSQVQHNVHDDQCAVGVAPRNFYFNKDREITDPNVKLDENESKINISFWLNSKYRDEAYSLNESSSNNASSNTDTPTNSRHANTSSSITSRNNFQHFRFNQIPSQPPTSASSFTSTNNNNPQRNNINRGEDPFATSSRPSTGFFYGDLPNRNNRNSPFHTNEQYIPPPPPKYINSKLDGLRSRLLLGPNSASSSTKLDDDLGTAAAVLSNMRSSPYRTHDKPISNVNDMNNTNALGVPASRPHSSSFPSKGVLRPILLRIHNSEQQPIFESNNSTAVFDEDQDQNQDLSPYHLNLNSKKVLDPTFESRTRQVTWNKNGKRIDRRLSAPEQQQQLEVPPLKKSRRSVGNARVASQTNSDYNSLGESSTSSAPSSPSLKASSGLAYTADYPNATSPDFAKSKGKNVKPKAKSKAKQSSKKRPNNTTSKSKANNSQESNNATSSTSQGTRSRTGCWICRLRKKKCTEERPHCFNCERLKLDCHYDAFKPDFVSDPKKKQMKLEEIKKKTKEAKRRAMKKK
# B2: Meiosis-inducing protein 1 (Saccharomyces cerevisiae), P21190 (parent)
# chain: B1 chain
# partner: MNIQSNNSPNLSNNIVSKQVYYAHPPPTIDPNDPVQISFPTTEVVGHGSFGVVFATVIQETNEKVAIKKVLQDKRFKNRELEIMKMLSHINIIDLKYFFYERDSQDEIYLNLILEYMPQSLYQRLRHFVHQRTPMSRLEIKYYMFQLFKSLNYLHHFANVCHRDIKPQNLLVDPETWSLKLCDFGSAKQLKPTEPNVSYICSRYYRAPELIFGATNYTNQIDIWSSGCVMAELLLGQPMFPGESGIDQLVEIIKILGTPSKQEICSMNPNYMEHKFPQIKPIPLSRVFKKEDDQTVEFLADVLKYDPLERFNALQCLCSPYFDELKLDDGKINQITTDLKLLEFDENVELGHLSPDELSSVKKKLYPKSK
# Variants of: B1
# Conditions: with ume6_yeast UME6, P39001
row,Variant,effect of a mutation on the interaction
1,L321F;S360F,decreasing interaction strength
2,L321F,disrupting interaction strength

# Further lines, results first:
row,effect of a mutation on the interaction,Variant
1,decreasing interaction strength,S352A;S356A;S360A
2,disrupting interaction strength,Y342A;Y343A;S352A;Y353A;S356A;T358A;Y359A;S360A
3,disrupting interaction strength,R347K;S360F
4,disrupting interaction strength,R347K

# Variants of: B2
# Conditions: with rim11_yeast RIM11, P38615
row,Variant,effect of a mutation on the interaction
1,L321F;S360F,decreasing interaction strength
2,R347K,disrupting interaction strength
3,R347K;S360F,decreasing interaction strength
4,L321F,disrupting interaction strength

# Variants of: B2
# Conditions: with rim11_yeast RIM11, P38615
# Remark: another data set of the same source
row,Variant,effect of a mutation on the interaction
1,L321F;S360F,with no effect
2,R347K;S360F,with no effect
3,Y342A;Y343A;S352A;Y353A;S356A;T358A;Y359A;S360A,with no effect
